Normalised SPOT signal, Boehringer light units (BLU); mean over the file's lines of this peptide data for 38 molecules are collected here from publication PMC314469, “Protein Interaction Networks by Proteome Peptide Scanning” (PLoS Biology, 2004).

In experiment [1] the target is T1, amphyphisin SH3 (AMPH_HUMAN), P49418.
T1 chain: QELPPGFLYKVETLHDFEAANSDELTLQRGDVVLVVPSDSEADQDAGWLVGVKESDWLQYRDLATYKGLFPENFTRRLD
In words: SPOT array.

The target in experiment [2] is endophilin SH3 (SH3G2_HUMAN), Q99962. In words: SPOT array.

For LGKVIRRPPLTEKL [Q9NRD6 13-26], the values for the normalised SPOT signal, Boehringer light units (BLU); mean over the file's lines of this peptide in experiment [1] and in experiment [2] were 4.7 and 277, respectively.

On to LDPALLRPGRFDRQ [Q9Y4W6 459-472], for which the values for the normalised SPOT signal, Boehringer light units (BLU); mean over the file's lines of this peptide in experiment [1] and in experiment [2] were 806 and 139, respectively.

Regarding LGHPPAKPPLPPGP [Q96QH2 497-511], the normalised SPOT signal, Boehringer light units (BLU); mean over the file's lines of this peptide in experiment [1] was found to be 64.4; in experiment [2], 264.

As to LGKIPLKPPPLELL [O15504 407-421], the normalised SPOT signal, Boehringer light units (BLU); mean over the file's lines of this peptide in experiment [1] worked out at 72.5; in experiment [2], 61.2.

LGASPAKPPSPGAP [Q8WXD9 1320-1334]: the normalised SPOT signal, Boehringer light units (BLU); mean over the file's lines of this peptide in experiment [1] is 62; in experiment [2], 102.

As to LDPALRRPGRFDRE [Q9HA41 350-363], the normalised SPOT signal, Boehringer light units (BLU); mean over the file's lines of this peptide in experiment [1] is 666; in experiment [2], 159.

As to APFLPPKPPPPIIV [Q9BYZ6 230-244], the normalised SPOT signal, Boehringer light units (BLU); mean over the file's lines of this peptide in experiment [1] was 35.1; in experiment [2] it was 1320.

Take LELALKRPRPPVLS [Q9ULJ3 268-281]: the normalised SPOT signal, Boehringer light units (BLU); mean over the file's lines of this peptide in experiment [1] was 29.6; in experiment [2] it was 129.

For the molecule LEIPPPKPPAPLLH [Q8WXI9 364-378], the normalised SPOT signal, Boehringer light units (BLU); mean over the file's lines of this peptide worked out at 36.7 in experiment [1] and 712 in experiment [2].

In the case of LEQAFRRPNVNLTS [Q8WVX9 331-344], the values for the normalised SPOT signal, Boehringer light units (BLU); mean over the file's lines of this peptide in experiment [1] and in experiment [2] were 43.1 and 42.5, respectively.

For LEQLLLRPERPGDT [O43157 127-140], the normalised SPOT signal, Boehringer light units (BLU); mean over the file's lines of this peptide is 68.8 in experiment [1] and 147 in experiment [2].

For LDPALRRPSQKVYR [O15047 30-43], the normalised SPOT signal, Boehringer light units (BLU); mean over the file's lines of this peptide stood at 37.6 in experiment [1] and 108 in experiment [2].

With LEESPWKPPTYLFS [Q9P239 478-492], the normalised SPOT signal, Boehringer light units (BLU); mean over the file's lines of this peptide in experiment [1] is 39.8; in experiment [2] it was 53.3.

Take LGDSLRRPQLRLWS [P41440 258-271]: the normalised SPOT signal, Boehringer light units (BLU); mean over the file's lines of this peptide turned out to be 14.9 in experiment [1] and 6 in experiment [2].

For LDPALMRPGRFHRQ [O43931 13-26], the normalised SPOT signal, Boehringer light units (BLU); mean over the file's lines of this peptide in experiment [1] came out at 2880; in experiment [2] it was 311.

LDSILRRPYVTSQP [Q9Y5K1 339-352]: the normalised SPOT signal, Boehringer light units (BLU); mean over the file's lines of this peptide in experiment [1] was 10.6; in experiment [2], 54.4.

With LDPALMRPGRLDRK [P35998 327-340], the normalised SPOT signal, Boehringer light units (BLU); mean over the file's lines of this peptide in experiment [1] came out at 4700; in experiment [2] it was 346.

For the molecule LDPALIRPGRIDRK [Q03527 337-350], the normalised SPOT signal, Boehringer light units (BLU); mean over the file's lines of this peptide came to 4590 in experiment [1] and 75.3 in experiment [2].

For LFIIPPKPPGRPQG [P81489 12-26], the normalised SPOT signal, Boehringer light units (BLU); mean over the file's lines of this peptide in experiment [1] turned out to be 459; in experiment [2] it was 538.

On to APEPPPRPPPALSP [Q96NP9 14-28], for which the results for the normalised SPOT signal, Boehringer light units (BLU); mean over the file's lines of this peptide in experiment [1] and in experiment [2] were 962 and 2330, respectively.

Take APLLPPRPPPLPPV [Q9NR05 56-70]: the normalised SPOT signal, Boehringer light units (BLU); mean over the file's lines of this peptide in experiment [1] worked out at 1400; in experiment [2] it was 4020.

As to LERRLKRPRTQGVV [Q9H9E5 251-264], the normalised SPOT signal, Boehringer light units (BLU); mean over the file's lines of this peptide in experiment [1] worked out at 34.4; in experiment [2], 20.

For the molecule LFNLIKRPDDEQRQ [Q9P260 301-314], the normalised SPOT signal, Boehringer light units (BLU); mean over the file's lines of this peptide in experiment [1] is 16.2; in experiment [2], 34.

Turning to LEYVLFRPNRRYNQ [Q15018 147-160], the results for the normalised SPOT signal, Boehringer light units (BLU); mean over the file's lines of this peptide in experiment [1] and in experiment [2] were 451 and 54.6, respectively.

As to LGGSPRRPSGRKGS [Q92729 834-847], the results for the normalised SPOT signal, Boehringer light units (BLU); mean over the file's lines of this peptide in experiment [1] and in experiment [2] were 34.3 and 122, respectively.

On to LEIPPPKPPAPEMN [Q96F28 217-231], for which the normalised SPOT signal, Boehringer light units (BLU); mean over the file's lines of this peptide in experiment [1] amounted to 31.6; in experiment [2], 43.4.

With LFPPLFRPQRPHSA [Q9ULW2 164-177], the results for the normalised SPOT signal, Boehringer light units (BLU); mean over the file's lines of this peptide in experiment [1] and in experiment [2] were 5720 and 10200, respectively.

On to LETSLKRPKRPLFN [Q96RW7 67-80], for which the normalised SPOT signal, Boehringer light units (BLU); mean over the file's lines of this peptide turned out to be 1410 in experiment [1] and 93.1 in experiment [2].

For LDSALLRPGRIDRK [P47210 301-314], the values for the normalised SPOT signal, Boehringer light units (BLU); mean over the file's lines of this peptide in experiment [1] and in experiment [2] were 1620 and 117, respectively.

Take LEFPPRRPFARRRM [O00513 852-865]: the normalised SPOT signal, Boehringer light units (BLU); mean over the file's lines of this peptide in experiment [1] is 241; in experiment [2], 3050.

Regarding LFQPPRRPGLGTVG [Q9HCK5 75-88], the normalised SPOT signal, Boehringer light units (BLU); mean over the file's lines of this peptide in experiment [1] was 1500; in experiment [2], 1840.

For LDPALLRPGRFDKL [Q13608 854-867], the normalised SPOT signal, Boehringer light units (BLU); mean over the file's lines of this peptide in experiment [1] came out at 944; in experiment [2], 0.

Take LGEVPRRPASRGVP [Q969P6 16-29]: the normalised SPOT signal, Boehringer light units (BLU); mean over the file's lines of this peptide in experiment [1] was found to be 22.2; in experiment [2], 1050.

Turning to APELLKRPKEYTVR [O14897 560-573], the normalised SPOT signal, Boehringer light units (BLU); mean over the file's lines of this peptide is 28 in experiment [1] and 29.7 in experiment [2].

For LDPALLRPGRLDRK [P43686 317-330], the normalised SPOT signal, Boehringer light units (BLU); mean over the file's lines of this peptide in experiment [1] turned out to be 2030; in experiment [2], 123.

Take LFFELRRPPQHGVL [Q9H6N9 50-63]: the normalised SPOT signal, Boehringer light units (BLU); mean over the file's lines of this peptide was found to be 12.7 in experiment [1] and 168 in experiment [2].

With LEDSPKRPKEAENP [P51858 162-175], the normalised SPOT signal, Boehringer light units (BLU); mean over the file's lines of this peptide in experiment [1] worked out at 12.6; in experiment [2] it was 2.6.

Regarding LDPLPRRPPAGRRG [BAC04326 52-66], the normalised SPOT signal, Boehringer light units (BLU); mean over the file's lines of this peptide was found to be 1100 in experiment [1] and 4540 in experiment [2].
